Results published in patent publication US20160362487A1.

Legend:
[1] = molecular target: human IL-33 (R&D Systems, #3625-IL-010/CF) (human) (UniProt O95760); assay: BLI; hIL-33 pre-mixed with mAb-2 H1M9559N
[2] = molecular target: cynomolgus monkey IL-33 expressed with a C-terminal hexahistidine tag (cynomolgus monkey); assay: BLI; captured MfIL-33-6His pre-complexed with mAb-1 H1M9565N
[3] = molecular target: cynomolgus monkey IL-33 expressed with a C-terminal hexahistidine tag (cynomolgus monkey); assay: BLI; captured MfIL-33-6His pre-complexed with mAb-1 H1M9566N
[4] = molecular target: cynomolgus monkey IL-33 expressed with a C-terminal hexahistidine tag (cynomolgus monkey); assay: BLI; captured MfIL-33-6His pre-complexed with mAb-1 H4H9667P
[5] = molecular target: cynomolgus monkey IL-33 expressed with a C-terminal hexahistidine tag (cynomolgus monkey); assay: BLI; captured MfIL-33-6His pre-complexed with mAb-1 H1M9559N
[6] = molecular target: cynomolgus monkey IL-33 expressed with a C-terminal hexahistidine tag (cynomolgus monkey); assay: BLI; captured MfIL-33-6His pre-complexed with mAb-1 H4H9640P
[7] = molecular target: cynomolgus monkey IL-33 expressed with a C-terminal hexahistidine tag (cynomolgus monkey); assay: BLI; captured MfIL-33-6His pre-complexed with mAb-1 H4H9664P
[8] = molecular target: cynomolgus monkey IL-33 expressed with a C-terminal hexahistidine tag (cynomolgus monkey); assay: BLI; captured MfIL-33-6His pre-complexed with mAb-1 H4H9665P
[9] = molecular target: cynomolgus monkey IL-33 expressed with a C-terminal hexahistidine tag (cynomolgus monkey); assay: BLI; captured MfIL-33-6His, mAb-1 step with Isotype control
[10] = molecular target: cynomolgus monkey IL-33 expressed with a C-terminal hexahistidine tag (cynomolgus monkey); assay: BLI; captured MfIL-33-6His, mAb-1 step with Buffer
[11] = molecular target: cynomolgus monkey IL-33 expressed with a C-terminal hexahistidine tag (cynomolgus monkey); assay: BLI; mAb-1 on captured MfIL-33-6His
[12] = molecular target: human IL-33 (R&D Systems, #3625-IL-010/CF) (human) (UniProt O95760); assay: BLI; hIL-33 pre-mixed with mAb-2 H4H9667P
[13] = molecular target: human IL-33 (R&D Systems, #3625-IL-010/CF) (human) (UniProt O95760); assay: BLI; hIL-33 pre-mixed with mAb-2 H4H9676P
[14] = molecular target: human IL-33 (R&D Systems, #3625-IL-010/CF) (human) (UniProt O95760); assay: BLI; hIL-33 pre-mixed with mAb-2 H4H9670P

Sequence of human IL-33 (R&D Systems, #3625-IL-010/CF) (human) (O95760 112-270 limits assumed): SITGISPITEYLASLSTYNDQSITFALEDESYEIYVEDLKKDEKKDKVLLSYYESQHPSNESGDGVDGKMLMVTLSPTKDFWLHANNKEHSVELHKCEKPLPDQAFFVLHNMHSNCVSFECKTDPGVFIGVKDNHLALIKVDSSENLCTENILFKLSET
Sequence of cynomolgus monkey IL-33 expressed with a C-terminal hexahistidine tag (cynomolgus monkey) (chain, as listed by the source limits assumed): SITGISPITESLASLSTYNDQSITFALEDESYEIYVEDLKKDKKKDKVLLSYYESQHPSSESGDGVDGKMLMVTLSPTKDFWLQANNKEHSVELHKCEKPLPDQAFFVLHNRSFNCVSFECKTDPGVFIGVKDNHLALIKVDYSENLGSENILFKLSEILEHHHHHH

Isotype control 2 (antibody)
mAb-1 Binding to the Pre-complex of mAb-2 & hIL-33 [1]: 0.02 nm

isotype control antibody
mAb-2 Binding to the Pre-complex of mAb-1 & MfIL-33-6xHis [2]: 0.04 nm | mAb-2 Binding to the Pre-complex of mAb-1 & MfIL-33-6xHis [3]: 0.04 nm | mAb-2 Binding to the Pre-complex of mAb-1 & MfIL-33-6xHis [4]: 0.03 nm | mAb-2 Binding to the Pre-complex of mAb-1 & MfIL-33-6xHis [5]: 0.01 nm | mAb-2 Binding to the Pre-complex of mAb-1 & MfIL-33-6xHis [6]: 0.02 nm | mAb-2 Binding to the Pre-complex of mAb-1 & MfIL-33-6xHis [7]: 0.02 nm | mAb-2 Binding to the Pre-complex of mAb-1 & MfIL-33-6xHis [8]: 0.03 nm | mAb-2 Binding to the Pre-complex of mAb-1 & MfIL-33-6xHis [9]: 0.01 nm | mAb-2 Binding to the Pre-complex of mAb-1 & MfIL-33-6xHis [10]: 0.03 nm | mAb-1 Binding (nm) [11]: 0.01 nm

Isotype control 1 (antibody)
mAb-1 Binding to the Pre-complex of mAb-2 & hIL-33 [12]: 0.01 nm | mAb-1 Binding to the Pre-complex of mAb-2 & hIL-33 [13]: 0.01 nm | mAb-1 Binding to the Pre-complex of mAb-2 & hIL-33 [14]: 0.01 nm
